In patent publication CN114075285A (REYOUNG SUZHOU BIOPHARMACEUTICAL CO LTD, dated 2022):

How the values were obtained:
[1] = biological target: T1, CD38 (human), analyte in Biacore (human, UniProt P28907 43-300, limits assumed); experiment: SPR (Biacore 8K), antibody captured on Protein A chip, CD38 as analyte, 25℃
T1 construct: also called 分析物CD38; 人的CD38蛋白

[2] = biological target: CD38 antigen on the cell surface (Daudi cells; NCI-H929 cells) (human, UniProt P28907 1-300); experiment: cell-based or functional assay

Kd [1] [nM] | ADCC reporter (Jurkat-Lucia-NFAT-CD16 + NCI-H929), EC50(μg/mL) [2] [µg/mL] | Binder
1.04 | 0.011 | RB0021-S3 (antibody) chain 1: not shown chain 2: DVQMTQSPSSVSASVGDRVTITCRSSQSPEHSNGNTYLHWYQQKPGKAPKLLIYKVSNRFSGVPSRFSGSGSGTDFTLTISSLQPEDFATYFCSQGTHFPFTFGQGTKVEIKRTVAAPSVFIFPPSDEQLKSGTASVVCLLNNFYPREAKVQWKVDNALQSGNSQESVTEQDSKDSTYSLSSTLTLSKADYEKHKVYACEVTHQGLSSPVTKSFNRGEC
1.04 | 0.014 | RB0021-S4 (antibody) chain 1: not shown chain 2: DVQMTQSPSSVSASVGDRVTITCRSSQSPEHSNGNTYLHWYQQKPGKAPKLLIYKVSNRFSGVPSRFSGSGSGTDFTLTISSLQPEDFATYFCSQGTHFPFTFGQGTKVEIKRTVAAPSVFIFPPSDEQLKSGTASVVCLLNNFYPREAKVQWKVDNALQSGNSQESVTEQDSKDSTYSLSSTLTLSKADYEKHKVYACEVTHQGLSSPVTKSFNRGEC
